Experimental data taken from patent US20220031842A1 (JIANGSU HENGRUI MEDICINE, published 2022).

B1: mAb229 (antibody, V domains shown)
VH: QIQLVQSGPELKKPGETVKISCKASGYTFTTSGMSWVKQAPGKGLKWMGWINTYSGVPTYADDFKGRFAFSLETSASTAYLQINNLKNEDTATYFCARDNYDARDVYYYAMDYWGQGTSVTVSS
VL: DIQMTQSPASLSVSVGETVTITCRASENIYSNLAWYQQKQGKSPQLLVYAATNLADGVPSRFSGSGSGTQYSLKINSLQSEDFGSYYCQHFWITPWTFGGGTKLEIK
notes: Murine hybridoma antibody; also called LAG-3 antibody mAb229; hybridoma clone mAb229
B2: mAb303 (antibody, V domains shown)
VH: EVQLQQSGPVLVKPGASVKMSCKASGYTLTDYYMNWVKQSHGKSLEWIGVINPYNGDTAYNQKFKGKATLTVDKSSNTAYMEINSLTSEDSAVYYCTRDDGYYDYYFDVWGTGTTVTVSS
VL: DIQMTQSPSSLSASLGERVILTCRASQDIGSRLNWLQQGPDGTFKRLIYATSTLDSGVPKRFSGSRSGSDFSLTISSLESEDFVDYYCLQLASSPPTFGGGTKLEIK
notes: Murine hybridoma antibody; also called LAG-3 antibody mAb303; hybridoma clone mAb303

Columns and labels:
[1] = molecular target: T1, Fusion protein of LAG-3 extracellular region and hIgG1 Fc (human); assay: ELISA, LAG-3-Fc captured by anti-human Fc on plate (which fusion: inferred)
T1 construct: Limits of the signal peptide are marked only by lost underlining; also called LAG-3-Fc; LAG-3-Fc fusion protein
Excerpt: The binding ability of anti-LAG-3 antibody to human LAG-3 protein was detected by ELISA assay. LAG-3 fusion protein with Fc or mFc tag was immobilized into 96-well microtiter plate by binding to anti-Fc or anti-mFc antibody coated on the microtiter plate, the strength of the signal after the addition of the antibody was used to determine the binding activity of the antibody to LAG-3, the specific experimental method is as follows.
The goat anti-human Fc antibody (Jackson Immuno Research, Cat No. 109-005-008) or goat anti-mouse Fc antibody (Sigma, Cat No. M3534-1ML) was diluted to a concentration of 2 μg/ml with PBS buffer at pH 7.4 (Sigma, Cat No. P4417-100TAB), and added to a 96-well plate at a volume of 50 μl/well and then, the plate was incubated in the incubator at 37° C. for 2 hours. After discarding the liquid, the plates were blocked with 200 μl/well of blocking solution containing 5% skim milk (Bright Dairy, skim milk powder) in PBS, and incubated in the incubator at 37° C. for 2.5 hours or overnight at 4° C. (16-18 hours). After blocking, the blocking solution was discarded and the plate was washed 5 times with PBST buffer (PH7.4 PBS containing 0.05% tween-20). […]

[2] = molecular target: T1, Fusion protein of LAG-3 extracellular …; assay: competition: biotin-LAG-3-Fc binding to fixed Daudi cells, antibody titrated
Outline: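 Daudi cells were PFA-fixed and blocked, then given 0.4 μg/ml (final) biotin-LAG-3-Fc premixed for 1 h with titrated antibody, and incubated 1 h at 37° C. Bound fusion protein was detected with HRP-streptavidin and TMB, read at OD450. Antibody blocking of antigen binding to the cells was calculated from the signal.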
Target sequence in this assay (chain, as listed by the source limits assumed): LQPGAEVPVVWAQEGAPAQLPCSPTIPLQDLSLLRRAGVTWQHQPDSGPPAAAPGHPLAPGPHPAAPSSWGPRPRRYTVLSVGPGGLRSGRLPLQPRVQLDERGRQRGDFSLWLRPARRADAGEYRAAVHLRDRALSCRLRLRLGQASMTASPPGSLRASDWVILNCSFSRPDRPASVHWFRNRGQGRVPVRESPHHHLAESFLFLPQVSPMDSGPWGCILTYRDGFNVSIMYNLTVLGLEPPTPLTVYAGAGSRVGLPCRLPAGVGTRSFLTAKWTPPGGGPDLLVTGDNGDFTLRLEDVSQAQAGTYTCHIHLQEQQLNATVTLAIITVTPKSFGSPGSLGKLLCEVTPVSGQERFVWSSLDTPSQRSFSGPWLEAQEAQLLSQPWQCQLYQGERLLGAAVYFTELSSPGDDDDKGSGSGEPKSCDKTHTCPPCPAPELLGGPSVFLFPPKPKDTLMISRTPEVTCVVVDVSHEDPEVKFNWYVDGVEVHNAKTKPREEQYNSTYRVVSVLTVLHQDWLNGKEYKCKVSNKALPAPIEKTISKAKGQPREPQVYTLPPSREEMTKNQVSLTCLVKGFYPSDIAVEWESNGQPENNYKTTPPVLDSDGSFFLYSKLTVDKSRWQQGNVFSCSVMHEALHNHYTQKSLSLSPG

Row | Binder | EC50 [1] [pM] | IC50 [2] [pM]
1 | B1 | 129 | 1330
2 | B2 | 172 | 596
